B1: cyno 4-1BB overexpressed on CHO cells (receptor)
chain: LQDLCSNCPAGTFCDNNRSQICSPCPPNSFSSAGGQRTCDICRQCKGVFKTRKECSSTSNAECDCISGYHCLGAECSMCEQDCKQGQELTKKGCKDCCFGTFNDQKRGICRPWTNCSLDGKSVLVNGTKERDVVCGPSPADLSPGASSATPPAPAREPGHSPQIIFFLALTSTVVLFLLFFLVLRFSVVKRSRKKLLYIFKQPFMRPVQTTQEEDGCSCRFPEEEEGGCEL

What was measured:
[1] = molecular target: B1; experiment: flow cytometry on cells
HZ-L-Yr-16-Fc [2] = experiment: ELISA
HZ-L-Yr-16-Fc [3] = experiment: flow cytometry on cells

| binding result (HZ-L-Yr-16-Fc [2]) | Binder | other results |
| --- | --- | --- |
|  | Urelumab (antibody, V domains shown) VH: QVQLQQWGAGLLKPSETLSLTCAVYGGSFSGYYWSWIRQSPEKGLEWIGEINHGGYVTYNPSLESRVTISVDTSKNQFSLKLSSVTAADTAVYYCARDYGPGNYDWYFDLWGRGTLVTVSS VL: EIVLTQSPATLSLSPGERATLSCRASQSVSSYLAWYQQKPGQAPRLLIYDASNRATGIPARFSGSGSGTDFTLTISSLEPEDFAVYYCQQRSNWPPALTFGGGTKVEIK | binding result [1]: no binding |
| no binding | Human OX40 (receptor) LHCVGDTYPSNDRCCHECRPGNGMVSRCSRSQNTVCRPCGPGFYNDVVSSKPCKPCTWCNLRSGSERKQLCTATQDTVCRCRAGTQPLDSYKPGVDCAPCPPGHFSPGDNQACKPWTNCTLAGKHTLQPASNSSDAICEDRDPPATQPQETQGPPARPITVQPTEAWPRTSQGPSTRPVEVPGGRA |  |
| no binding | Human GITR (receptor) QRPTGGPGCGPGRLLLGTGTDARCCRVHTTRCCRDYPGEECCSEWDCMCVQPEFHCGDPCCTTCRHHPCPPGQGVQSQGKFSFGFQCIDCASGTFSGGHEGHCKPWTDCTQFGFLTVFPGNKTHNAVCVPGSPPAEP |  |
|  | B1 | binding result (HZ-L-Yr-16-Fc [3]): binds |

Reference: PMC8237747 (Journal for Immunotherapy of Cancer, 2021)
